Results on two molecules are retold here after article PMC11218660, “Functional dissection of human cardiac enhancers and noncoding de novo variants in congenital heart disease”.

For this data set, the target named is T1, SRF (human, UniProt P11831 1-508).
T1 sequence: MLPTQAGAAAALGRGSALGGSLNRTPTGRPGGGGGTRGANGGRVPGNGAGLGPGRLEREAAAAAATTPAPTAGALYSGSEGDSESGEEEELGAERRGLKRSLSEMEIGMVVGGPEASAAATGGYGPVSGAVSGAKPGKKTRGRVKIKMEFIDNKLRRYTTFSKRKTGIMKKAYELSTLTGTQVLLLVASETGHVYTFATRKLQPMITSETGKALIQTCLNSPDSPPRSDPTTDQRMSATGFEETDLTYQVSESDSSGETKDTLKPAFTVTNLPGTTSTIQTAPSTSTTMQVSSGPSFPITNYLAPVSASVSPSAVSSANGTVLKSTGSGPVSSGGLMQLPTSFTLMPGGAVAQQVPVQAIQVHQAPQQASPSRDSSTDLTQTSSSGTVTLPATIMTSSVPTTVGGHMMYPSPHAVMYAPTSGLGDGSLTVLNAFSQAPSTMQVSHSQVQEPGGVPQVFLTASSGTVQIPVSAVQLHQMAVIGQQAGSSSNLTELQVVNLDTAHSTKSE
Briefly: EMSA; EMSA: 150 mM KCl, 0.1 mM DTT, 0.1 mM EDTA, 10 mM Tris pH 7.4; 500-800 fmol probe, 0.1-2.0 ug protein in 15-20 ul; room temperature 20 min; 6% native PAGE, SYBR. Conditions: protein: recombinant; chain copies: 2; blunt. (A gel shift assay detects complexes by their altered migration in electrophoresis.)

B1: ADAMTS6-CRE ALT (dsDNA)
DNA 1: AATGCATCTGCTTGCTTCATTTGGCAGATTCCTCAAGAGT
DNA 2: ACTCTTGAGGAATCTGCCAAATGAAGCAAGCAGATGCATT
For the molecule B1, the binding result is given as “binds”.

B2: GLB1L3-CRE REF (dsDNA)
DNA 1: GAGGGAGGGGAGCGATCTCTCCTTTCTTGGAGAAAATAGTATCGC
DNA 2: GCGATACTATTTTCTCCAAGAAAGGAGAGATCGCTCCCCTCCCTC
For the molecule B2, the binding result is given as “binds”.
